Laboratory results as given in patent publication US20150344570A1 (published 2015).

T1: FcγRIIb (human, UniProt P31994 43-217)
T1 construct: extracellular domain; Soluble extracellular domain with a C-terminal His tag, expressed in FreeStyle293 cells; also called FcgRIIb; 2b; not shown: His tag attached to the C terminus
T1 sequence (looked up): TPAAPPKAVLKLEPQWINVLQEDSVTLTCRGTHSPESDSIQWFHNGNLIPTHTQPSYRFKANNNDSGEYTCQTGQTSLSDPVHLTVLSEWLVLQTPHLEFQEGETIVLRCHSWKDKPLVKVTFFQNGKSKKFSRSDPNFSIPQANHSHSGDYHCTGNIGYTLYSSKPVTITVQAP

T2: FcγRIIa H (FcγRIIa type H, His at position 131), extracellular domain with C-terminal His tag (human, UniProt P12318 34-217)
T2 construct: extracellular domain; expressed in FreeStyle293 cells; also called FcgRIIa H; 2aH; not shown: His tag attached to the C terminus
T2 sequence (looked up): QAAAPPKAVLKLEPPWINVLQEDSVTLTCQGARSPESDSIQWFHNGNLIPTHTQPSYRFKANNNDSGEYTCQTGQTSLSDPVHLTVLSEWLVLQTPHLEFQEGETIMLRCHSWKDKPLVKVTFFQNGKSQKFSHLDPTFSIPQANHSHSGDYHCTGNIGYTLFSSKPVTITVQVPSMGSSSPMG

T3: FcγRIIb, extracellular domain with C-terminal His tag (human, UniProt P31994 43-217)
T3 construct: extracellular domain; expressed in FreeStyle293 cells; also called FcgRIIb; 2b; not shown: His tag attached to the C terminus
T3 sequence (looked up): T1 sequence (looked up)

B1: GpH7-A5/GpH7-B3 variant P238_03V/GpL16-k0 (antibody, human IgG1, kappa)
heavy 1: not shown
heavy 2: not shown
light: DIVMTQSPLSLPVTPGEPASISCQASESLVHSNRNTYLHWYLQKPGQSPQLLIYKVSNRFSGVPDRFSGSGSGTDFTLKISRVEAEDVGVYYCSQNTHVPPTFGQGTKVEIERTVAAPSVFIFPPSDEQLKSGTASVVCLLNNFYPREAKVQWKVDNALQSGNSQESVTEQDSKDSTYSLSSTLTLSKADYEKHKVYACEVTHQGLSSPVTKSFNRGEC
notes: Heterodimerized anti-glypican-3 IgG1; the mutation is in the GpH7-B3 chain only; also called He Ab
B2: GpH7-A5/GpH7-B3 variant P238_06M/GpL16-k0 (antibody, human IgG1, kappa)
heavy 1: not shown
heavy 2: not shown
light: B1 light
notes: as for B1
B3: GpH7-A5/GpH7-B3 variant P238_04F/GpL16-k0 (antibody, human IgG1, kappa)
heavy 1: not shown
heavy 2: not shown
light: B1 light
notes: as for B1
B4: GpH7-A5/GpH7-B3 variant D265_01G/GpL16-k0 (antibody, human IgG1, kappa)
heavy 1: not shown
heavy 2: not shown
light: B1 light
notes: as for B1
B5: GpH7-A5/GpH7-B3 variant P238_07I/GpL16-k0 (antibody, human IgG1, kappa)
heavy 1: not shown
heavy 2: not shown
light: B1 light
notes: Heterodimerized antibody (He Ab): mutation in the GpH7-B3 chain only; also called He Ab
B6: GpH7-A5/GpH7-B3 variant S239_08L/GpL16-k0 (antibody, human IgG1, kappa)
heavy 1: not shown
heavy 2: not shown
light: B1 light
notes: as for B5
B7: GpH7-A5/GpH7-B3 variant P238_20W/GpL16-k0 (antibody, human IgG1, kappa)
heavy 1: not shown
heavy 2: not shown
light: B1 light
notes: as for B5
B8: GpH7-A5/GpH7-B3 variant P238_19Q/GpL16-k0 (antibody, human IgG1, kappa)
heavy 1: not shown
heavy 2: not shown
light: B1 light
notes: as for B5
B9: GpH7-A5/GpH7-B3 variant P238_14T/GpL16-k0 (antibody, human IgG1, kappa)
heavy 1: not shown
heavy 2: not shown
light: B1 light
notes: as for B5
B10: GpH7-A5/GpH7-B3 variant P238_13S/GpL16-k0 (antibody, human IgG1, kappa)
heavy 1: not shown
heavy 2: not shown
light: B1 light
notes: as for B5
B11: GpH7-A5/GpH7-B3 variant V266_08L/GpL16-k0 (antibody, human IgG1, kappa)
heavy 1: not shown
heavy 2: not shown
light: B1 light
notes: as for B5
B12: GpH7-A5/GpH7-B3 variant S239_18N/GpL16-k0 (antibody, human IgG1, kappa)
heavy 1: not shown
heavy 2: not shown
light: B1 light
notes: as for B5
B13: GpH7-A5/GpH7-B3 variant V266_04F/GpL16-k0 (antibody, human IgG1, kappa)
heavy 1: not shown
heavy 2: not shown
light: B1 light
notes: as for B5
B14: GpH7-A5/GpH7-B3 variant P238_16H/GpL16-k0 (antibody, human IgG1, kappa)
heavy 1: not shown
heavy 2: not shown
light: B1 light
notes: as for B5
B15: GpH7-A5/GpH7-B3 variant P238_10E/GpL16-k0 (antibody, human IgG1, kappa)
heavy 1: not shown
heavy 2: not shown
light: B1 light
notes: as for B5
B16: GpH7-A5/GpH7-B3 variant V266_12R/GpL16-k0 (antibody, human IgG1, kappa)
heavy 1: not shown
heavy 2: not shown
light: B1 light
notes: as for B5
B17: GpH7-A5/GpH7-B3 variant V266_07I/GpL16-k0 (antibody, human IgG1, kappa)
heavy 1: not shown
heavy 2: not shown
light: B1 light
notes: as for B5
B18: GpH7-A5/GpH7-B3 variant S239_05P/GpL16-k0 (antibody, human IgG1, kappa)
heavy 1: not shown
heavy 2: not shown
light: B1 light
notes: as for B5
B19: GpH7-A5/GpH7-B3 variant P238_18N/GpL16-k0 (antibody, human IgG1, kappa)
heavy 1: not shown
heavy 2: not shown
light: B1 light
notes: as for B5
B20: GpH7-A5/GpH7-B3 variant V266_14T/GpL16-k0 (antibody, human IgG1, kappa)
heavy 1: not shown
heavy 2: not shown
light: B1 light
notes: as for B5
B21: GpH7-A5/GpH7-B3 variant S239_20W/GpL16-k0 (antibody, human IgG1, kappa)
heavy 1: not shown
heavy 2: not shown
light: B1 light
notes: as for B5
B22: GpH7-A5/GpH7-B3 variant P238_09D/GpL16-k0 (antibody, human IgG1, kappa)
heavy 1: not shown
heavy 2: not shown
light: B1 light
notes: as for B5
B23: GpH7-A5/GpH7-B3 variant P238_08L/GpL16-k0 (antibody, human IgG1, kappa)
heavy 1: not shown
heavy 2: not shown
light: B1 light
notes: as for B5
B24: GpH7-A5/GpH7-B3 variant S239_09D/GpL16-k0 (antibody, human IgG1, kappa)
heavy 1: not shown
heavy 2: not shown
light: B1 light
notes: as for B5
B25: GpH7-A5/GpH7-B3 variant P238_15Y/GpL16-k0 (antibody, human IgG1, kappa)
heavy 1: not shown
heavy 2: not shown
light: B1 light
notes: as for B5
B26: GpH7-A5/GpH7-B3 variant V266_10E/GpL16-k0 (antibody, human IgG1, kappa)
heavy 1: not shown
heavy 2: not shown
light: B1 light
notes: as for B5
B27: GpH7-A5/GpH7-B3 variant V266_01G/GpL16-k0 (antibody, human IgG1, kappa)
heavy 1: not shown
heavy 2: not shown
light: B1 light
notes: as for B5
B28: GpH7-A5/GpH7-B3 variant V266_13S/GpL16-k0 (antibody, human IgG1, kappa)
heavy 1: not shown
heavy 2: not shown
light: B1 light
notes: as for B5
B29: GpH7-A5/GpH7-B3 variant V266_15Y/GpL16-k0 (antibody, human IgG1, kappa)
heavy 1: not shown
heavy 2: not shown
light: B1 light
notes: as for B5
B30: GpH7-A5/GpH7-B3 variant S239_10E/GpL16-k0 (antibody, human IgG1, kappa)
heavy 1: not shown
heavy 2: not shown
light: B1 light
notes: as for B5
B31: GpH7-A5/GpH7-B3 variant V266_09D/GpL16-k0 (antibody, human IgG1, kappa)
heavy 1: not shown
heavy 2: not shown
light: B1 light
notes: as for B5
B32: GpH7-A5/GpH7-B3 variant S239_01G/GpL16-k0 (antibody, human IgG1, kappa)
heavy 1: not shown
heavy 2: not shown
light: B1 light
notes: as for B5
B33: GpH7-A5/GpH7-B3 variant V266_06M/GpL16-k0 (antibody, human IgG1, kappa)
heavy 1: not shown
heavy 2: not shown
light: B1 light
notes: as for B5

Target: T4, FcγRIIIa (human, UniProt P08637 17-208)
T4 construct: extracellular domain; Soluble extracellular domain with a C-terminal His tag; also called FcgRIIIa; 3a; not shown: His tag attached to the C terminus
T4 sequence (P08637 17-208): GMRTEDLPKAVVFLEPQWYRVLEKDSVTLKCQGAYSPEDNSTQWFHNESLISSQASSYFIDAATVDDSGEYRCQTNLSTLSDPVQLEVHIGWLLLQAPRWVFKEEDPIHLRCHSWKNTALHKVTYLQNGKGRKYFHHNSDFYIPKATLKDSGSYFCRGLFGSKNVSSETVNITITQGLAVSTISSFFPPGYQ
Test: SPR; He/Con_3a (FcγRIIIa) divided by He/Con_2b (FcγRIIb)

He_3a/2b (IIIa/IIb)	Binder
0.36 ratio	B1
0.18 ratio	B2
0.15 ratio	B3
0.28 ratio	B4

Target: T1, FcγRIIb
Test: SPR (Biacore), antibody captured on chip, FcγR as analyte

He/Con_2b	Binder
120 relative binding, GpH7-A5/GpH7-B3/GpL16-k0 = 100	B1
174 relative binding, GpH7-A5/GpH7-B3/GpL16-k0 = 100	B2
312 relative binding, GpH7-A5/GpH7-B3/GpL16-k0 = 100	B3
16.1 relative binding, GpH7-A5/GpH7-B3/GpL16-k0 = 100	B4

Target: T4, FcγRIIIa
Test: as above

He/Con_3a	Binder
43.8 relative binding, GpH7-A5/GpH7-B3/GpL16-k0 = 100	B1
30.5 relative binding, GpH7-A5/GpH7-B3/GpL16-k0 = 100	B2
46.7 relative binding, GpH7-A5/GpH7-B3/GpL16-k0 = 100	B3
4.5 relative binding, GpH7-A5/GpH7-B3/GpL16-k0 = 100	B4

Target: T2, FcγRIIa H (FcγRIIa type H, His at …)
Test: SPR (Biacore); He/Con_2aH divided by He/Con_2b (FcγRIIa H against FcγRIIb)

He_2aH/2b (IIaH/IIb)	Binder
0.72 ratio	B5
0.75 ratio	B6
0.49 ratio	B7
0.51 ratio	B8
0.74 ratio	B9
0.72 ratio	B10
0.44 ratio	B11
0.79 ratio	B12
0.44 ratio	B13
0.4 ratio	B14
0.33 ratio	B15
-1.05 ratio	B16
0.69 ratio	B17
0.33 ratio	B18
0.73 ratio	B19
0.53 ratio	B20
0.78 ratio	B21
0.4 ratio	B22
0.41 ratio	B23
0.56 ratio	B24
0.27 ratio	B25
0.66 ratio	B26
0.71 ratio	B27
0.5 ratio	B28
0.37 ratio	B29
0.62 ratio	B30
0.63 ratio	B31
0.67 ratio	B32
0.33 ratio	B33

Target: T2, FcγRIIa H (FcγRIIa type H, His at …)
Test: SPR (Biacore), antibody captured on antigen peptide chip, FcγR as analyte; relative to GpH7-A5/GpH7-B3/GpL16-k0 = 100

He/Con_2aH (relative binding activity)	Binder
57.6 % of HeCon Ab (= 100)	B5
105 % of HeCon Ab (= 100)	B6
59.5 % of HeCon Ab (= 100)	B7
56.4 % of HeCon Ab (= 100)	B8
37.7 % of HeCon Ab (= 100)	B9
50.9 % of HeCon Ab (= 100)	B10
104 % of HeCon Ab (= 100)	B11
94.2 % of HeCon Ab (= 100)	B12
25.3 % of HeCon Ab (= 100)	B13
45.9 % of HeCon Ab (= 100)	B14
77.1 % of HeCon Ab (= 100)	B15
1.1 % of HeCon Ab (= 100)	B16
106 % of HeCon Ab (= 100)	B17
33.3 % of HeCon Ab (= 100)	B18
53.5 % of HeCon Ab (= 100)	B19
43.3 % of HeCon Ab (= 100)	B20
35.2 % of HeCon Ab (= 100)	B21
87.5 % of HeCon Ab (= 100)	B22
84.6 % of HeCon Ab (= 100)	B23
114 % of HeCon Ab (= 100)	B24
59.8 % of HeCon Ab (= 100)	B25
10.1 % of HeCon Ab (= 100)	B26
36.7 % of HeCon Ab (= 100)	B27
27 % of HeCon Ab (= 100)	B28
18.1 % of HeCon Ab (= 100)	B29
112 % of HeCon Ab (= 100)	B30
6.4 % of HeCon Ab (= 100)	B31
97 % of HeCon Ab (= 100)	B32
83.9 % of HeCon Ab (= 100)	B33

Target: T3, FcγRIIb, extracellular domain with …
Test: as above

He/Con_2b (relative binding activity)	Binder
80 % of HeCon Ab (= 100)	B5
140 % of HeCon Ab (= 100)	B6
123 % of HeCon Ab (= 100)	B7
110 % of HeCon Ab (= 100)	B8
50.7 % of HeCon Ab (= 100)	B9
70.4 % of HeCon Ab (= 100)	B10
236 % of HeCon Ab (= 100)	B11
119 % of HeCon Ab (= 100)	B12
57.6 % of HeCon Ab (= 100)	B13
115 % of HeCon Ab (= 100)	B14
232 % of HeCon Ab (= 100)	B15
-1.1 % of HeCon Ab (= 100)	B16
152 % of HeCon Ab (= 100)	B17
102 % of HeCon Ab (= 100)	B18
73.2 % of HeCon Ab (= 100)	B19
82.3 % of HeCon Ab (= 100)	B20
45.1 % of HeCon Ab (= 100)	B21
221 % of HeCon Ab (= 100)	B22
204 % of HeCon Ab (= 100)	B23
206 % of HeCon Ab (= 100)	B24
218 % of HeCon Ab (= 100)	B25
15.2 % of HeCon Ab (= 100)	B26
51.5 % of HeCon Ab (= 100)	B27
54.4 % of HeCon Ab (= 100)	B28
49.4 % of HeCon Ab (= 100)	B29
181 % of HeCon Ab (= 100)	B30
10.1 % of HeCon Ab (= 100)	B31
144 % of HeCon Ab (= 100)	B32
251 % of HeCon Ab (= 100)	B33
